Experimental data: US11857601B2, “Pharmaceutical composition for cancer treatment comprising fusion protein including IL-2 protein and CD80 protein and anticancer drug” (GI INNOVATION, INC., priority 2020, dated 2024)

Tests used:
[1] = system: CT26 cancer cell line; test: mGI102-M61 in mice transplanted with CT26 (Exp. Ex. 18); assay type: in vivo, BALB/c mice; conditions: 12 mg/kg i.v.
Experimental: The tumor size was measured daily.

[2] = system: effector CD8+ T cells, NK cells, Treg cells; test: Effect on mouse immune cells in spleen; assay type: in vivo, C57BL/6 mice; conditions: vs PBS
Experimental: On days 1, 3, 5, 7, and 14 after the injection, the spleen tissues were removed from the mice of each group. Thereafter, for the spleen tissue, the numbers of effector CD8+ T cells, NK cells, and Treg cells were calculated with FACS analysis using respective antibodies, and proportions of effector CD8+ T cells and NK cells with respect to Treg cells were respectively calculated. The information on the antibodies used in each cell analysis is as follows:
Effector CD8+ T cell: PB anti-mouse CD3ε antibody (Biolegend, #155612; KT3.1.1), FITC anti-mouse CD8α antibody (BD, #553031, 53-6.7), PE/Cy7 anti-mouse CD44 antibody (Biolegend, #103030; IM7), APC anti-mouse CD122 antibody (Biolegend, #123214; TM-β1)
NK cell: PB anti-mouse CD3ε antibody (Biolegend, #155612; KT3.1.1), PE anti-mouse NK-1.1 (Biolegend, #108708; PK136)
Treg cell: FITC anti-mouse CD3 antibody (Biolegend, #100204; 17A2), PB anti-mouse CD4 antibody (Biolegend, #100531; RM4-5), PE anti-mouse CD25 antibody (Biolegend, #102008; PC61), APC anti-mouse Foxp3 antibody (Invitrogen, #FJK-16s, 17-5773-82).

[3] = system: CD8+ T cells and CD4+/FoxP3+ Treg cells; test: Proliferation of CD8+ T cells and Treg cells in PBMCs (Exp. Ex. 10); assay type: cell-based, human; conditions: for proliferation of CD4+/FoxP3+ Treg cells: compared with no stimulus and anti-CD3 antibody alone
Experimental: Human PBMCs were purchased from Allcells (Lot #3014928, USA). […] CellTrace CFSE dye was used, which was reacted with the human PBMCs under a light-blocking condition at […] for 20 minutes. The cells were labeled with CFSE by being reacted with 1 μM CellTrace CFSE dye at 37° C. for 20 minutes. CFSE not bound to the cells was removed by being reacted for 5 minutes with a culture medium having a 5-fold volume of the staining reaction solution and then by being centrifuged at 1,300 rpm for 5 minutes. The CFSE-labeled PBMCs were resuspended in the culture medium (RPMI1640 medium containing 10% fetal bovine serum, 10 mM HEPES, 100 U/ml penicillin/streptomycin, 1 mM sodium pyruvate, 55 μM 2-mercaptoethanol, 1 mM non-essential amino acid, and 2 mM L-glutamine), and then added to a 96-well microplate at 1×10^5 cells per well.
The incubated cells were examined for their degree of proliferation by measuring, with FACS analysis using anti-human CD4-PE antibody (BioLegend, USA), anti-human CD8-PE/Cy7 antibody (BioLegend, USA), and anti-human FoxP3-APC antibody (BioLegend, USA), a proportion of CD8+ T cells that had not been labeled with CFSE.

Row | Molecule | survival rate ([1]; vs negative control) | Tumor growth inhibition ([1]; vs negative control (hIgG4)) | proportions of activated CD8+ T cells/Treg cells and NK cells/Treg cells ([2]; 3rd to 7th days after administration) | numbers of CD8+ T cells and NK cells ([2]; 3rd to 14th days after i.v. administration (3, 6 or 12 mg/kg)) | proportion of CD8+ T cells ([3]; anti-CD3ε 1 μg/ml, 7 days, compared with no stimulus, anti-CD3 antibody alone and GI101C1) | proliferation of CD4+/FoxP3+ Treg cells [3]
1 | mGI102-M61: mCD80-Fc-IL-2 variant (3M) (R38A, F42A, E61R); SEQ ID NO: 34 (protein, Sequence of fusion protein (mGI102-M61)) MDAMLRGLCCVLLLCGAVFVSPSHAVDEQLSKSVKDKVLLPCRYNSPHEDESEDRIYWQKHDKVVLSVIAGKLKVWPEYKNRTLYDNTTYSLIILGLVLSDRGTYSCVVQKKERGTYEVKHLALVKLSIKADFSTPNITESGNPSADTKRITCFASGGFPKPRFSWLENGRELPGINTTISQDPESELYTISSQLDFNTTRNHTIKCLIKYGDAHVSEDFTWEKPPEDPPDSGSGGGGSGGGGSGGGGSAESKYGPPCPPCPAPEAAGGPSVFLFPPKPKDQLMISRTPEVTCVVVDVSQEDPEVQFNWYVDGVEVHNAKTKPREEQFNSTYRVVSVLTVLHQDWLNGKEYKCKVSNKGLPSSIEKTISKAKGQPREPQVYTLPPSQEEMTKNQVSLTCLVKGFYPSDIAVEWESNGQPENNYKTTPPVLDSDGSFFLYSRLTVDKSRWQEGNVFSCSVLHEALHNHYTQKSLSLSLGGGGGSAPTSSSTKKTQLQLEHLLLDLQMILNGINNYKNPKLTAMLTAKFYMPKKATELKHLQCLERELKPLEEVLNLAQSKNFHLRPRDLISNINVIVLELKGSETTFMCEYADETATIVEFLNRWITFCQSIISTLT | significant improvement | significant tumor growth inhibition | significant increase | significant increase | – | –
2 | GI102-M61: hCD80-Fc-IL-2 variant (3M) (R38A, F42A, E61R); SEQ ID NO: 28 (protein, Sequence of fusion protein (GI102-M61)) VIHVTKEVKEVATLSCGHNVSVEELAQTRIYWQKEKKMVLTMMSGDMNIWPEYKNRTIFDITNNLSIVILALRPSDEGTYECVVLKYEKDAFKREHLAEVTLSVKADFPTPSISDFEIPTSNIRRIICSTSGGFPEPHLSWLENGEELNAINTTVSQDPETELYAVSSKLDFNMTTNHSFMCLIKYGHLRVNQTFNWNTTKQEHFPDNGSGGGGSGGGGSGGGGSAESKYGPPCPPCPAPEAAGGPSVFLFPPKPKDQLMISRTPEVTCVVVDVSQEDPEVQFNWYVDGVEVHNAKTKPREEQFNSTYRVVSVLTVLHQDWLNGKEYKCKVSNKGLPSSIEKTISKAKGQPREPQVYTLPPSQEEMTKNQVSLTCLVKGFYPSDIAVEWESNGQPENNYKTTPPVLDSDGSFFLYSRLTVDKSRWQEGNVFSCSVLHEALHNHYTQKSLSLSLGGGGGSAPTSSSTKKTQLQLEHLLLDLQMILNGINNYKNPKLTAMLTAKFYMPKKATELKHLQCLERELKPLEEVLNLAQSKNFHLRPRDLISNINVIVLELKGSETTFMCEYADETATIVEFLNRWITFCQSIISTLT | – | – | – | – | significant increase | did not exhibit a significant increase
3 | GI101C1: comparative fusion protein: human CD80 fragment, Ig hinge, Fc domain; SEQ ID NO: 17 (protein, Sequence of fusion protein (GI101C1)) VIHVTKEVKEVATLSCGHNVSVEELAQTRIYWQKEKKMVLTMMSGDMNIWPEYKNRTIFDITNNLSIVILALRPSDEGTYECVVLKYEKDAFKREHLAEVTLSVKADFPTPSISDFEIPTSNIRRIICSTSGGFPEPHLSWLENGEELNAINTTVSQDPETELYAVSSKLDFNMTTNHSFMCLIKYGHLRVNQTFNWNTTKQEHFPDNGSGGGGSGGGGSGGGGSAESKYGPPCPPCPAPEAAGGPSVFLFPPKPKDQLMISRTPEVTCVVVDVSQEDPEVQFNWYVDGVEVHNAKTKPREEQFNSTYRVVSVLTVLHQDWLNGKEYKCKVSNKGLPSSIEKTISKAKGQPREPQVYTLPPSQEEMTKNQVSLTCLVKGFYPSDIAVEWESNGQPENNYKTTPPVLDSDGSFFLYSRLTVDKSRWQEGNVFSCSVLHEALHNHYTQKSLSLSLG | – | – | – | – | – | did not exhibit a significant increase
